Where two headings read alike, the source gives them in different places.
Experiments:
[1] = biological target: Asp105 (UniProt position 105, GLVVYDYQQLL); experiment: CD spectroscopy; details: 25 °C; Free folded domain, 4.2-10 µmol/L protein
[2] = biological target: rh wildtype Bri2 BRICHOS (human) (UniProt Q9Y287); experiment: SEC
[3] = biological target: rh wildtype Bri2 BRICHOS (human) (UniProt Q9Y287); experiment: SEC; remark: listed apart in the source

Row | stoichiometry N [2] | stoichiometry N [3] | Substance | pKa [1]
1 | – | – | Prosurfactant protein C (proSP-C) BRICHOS domain, wild type (Homo sapiens) | about 6.1
2 | 2 | 2 | rh wildtype Bri2 BRICHOS (from UniProt Q9Y287 113-231) (domain or fragment) | –
